Measured values published in IntAct's records for PubMed 16628219.

B1: Ras GTPase-activating-like protein IQGAP1 (Mus musculus), Q9JKF1 (parent)
chain: MSAAEEVDGLGVVRPHYGSVLDNERLTAEEMDERRRQNVAYEYLCHLEEAKRWMEACLGEDLPPTTELEEGLRNGVYLAKLGNFFSPKVVSLKKIYDREQTRYKATGLHFRHTDNVIQWLNAMDEIGLPKIFYPETTDIYDRKNMPRCIYCIHALSLYLFKLGLAPQIQDLYGKVDFTEEEINNMKIELEKYGIQMPAFSKIGGILANELSVDEAALHAAVIAINEAIDRRVAADTFTALKNPNAMLVNLEEGLAPTYQDVLYQAKQDKMTNAKNRTENSDRERDVYEELLTQAEIQGNVNKVNTSSALANISLALEQGCAVTLLKALQSLALGLRGLQTQNSDWYMKQLQSDLQQKRQSGQTDPLQKEEVQAGVDAANSAAQQYQRRLAAVAAINAAIQKGIAEKTVLELMNPEAQLPQVYPFAADLYQKELATLQQQSPEHSLTHPELTVAVEMLSSVALINRALESGDMTTVWKQLSSSVTGLTNIEEENCQRYLDELMKLKAQAHAENNAFITWNDIQACVDHVNLVVHEEHERILAIGLINEALDEGDAQKTLQALQIPAAKLEGVLAEVAQHYQDTLIRAKREKAQETQDESAVLWLDEIQGGIWQSNKDTQEAQRFALGISAINEAVDSGDVGRTLSALRSPDVGLYGVIPECGETYQSDLAEAKKKRLAAGDNNSKWVKHWVKGGYHYYHNLETQAGGWAEPPDFVQNSVQLSREEIQSSISGVTAAYNREQLWLANEGLITKLQACCRGYLVRQEFRSRMNFLKKQIPAITCIQSQWRGYKQKKAYQDRLAYLHSHKDEVVKIQSLARMHQARKRYRDRLQYFRDHINDIIKIQAFIRANKARDDYKTLINAEDPPMIVVRKFVHLLDQSDQDFQEELDLMKMREEVITLIRSNQQLENDLNLMDIKIGLLVKNKITLQDVVSHSKKLTKKNKEQLSDMMMINKQKGGLKALSKEKREKLEAYQHLFYLLQTNPTYLAKLIFQMPQNKSTKFMDSVIFTLYNYASNQREEYLLLRLFQTALQEEIKSKVDQIQEIVTGNPTVIKMVVSFNRGARGQNALRQILAPVVKEIMDDKSLNIKTDPVDIYKSWVNQMESQTGEASKLPYDVTPEQALSHEEVKTRLDNSIRNMRAVTDKFLSAIVSSVDKIPYGMRFIAKVLKDSLHEKFPDAGEDELLKIIGNLLYYRYMNPAIVAPDAFDIIDLSAGGQLTTDQRRNLGSIAKMLQHAASNKMFLGDNAHLSIINEYLSQSYQKFRRFFQVACDVPELQDKFNVDEYSDLVTLTKPVIYISIGEIINTHTLLLDHQDAIAPEHNDPIHELLDDLGEVPTIESLIGESCGNSNDPNKEALAKTEVSLTLTNKFDVPGDENAEMDARTILLNTKRLIVDVIRFQPGETLTEILETPATNEQEAEHQRAMQRRAIRDAKTPDKMKKSKPMKEDNNLSLQEKKEKIQTGLKKLTELGTVDPKNRYQELINDIAKDIRNQRRYRQRRKAELVKLQQTYSALNSKATFYGEQVDYYKSYIKTCLDNLASKGKVSKKPREMKGKKSKKISLKYTAARLHEKGVLLEIEDLQANQFKNVIFEIGPTEEVGDFEVKAKFMGVQMETFMLHYQDLLQLQYEGVAVMKLFDRAKVNVNLLIFLLNKKFYGK
B2: Gag polyprotein (Moloney murine leukemia virus (isolate Shinnick) (MoMLV)), P03332 (parent)
chain: MGQTVTTPLSLTLGHWKDVERIAHNQSVDVKKRRWVTFCSAEWPTFNVGWPRDGTFNRDLITQVKIKVFSPGPHGHPDQVPYIVTWEALAFDPPPWVKPFVHPKPPPPLPPSAPSLPLEPPRSTPPRSSLYPALTPSLGAKPKPQVLSDSGGPLIDLLTEDPPPYRDPRPPPSDRDGNGGEATPAGEAPDPSPMASRLRGRREPPVADSTTSQAFPLRAGGNGQLQYWPFSSSDLYNWKNNNPSFSEDPGKLTALIESVLITHQPTWDDCQQLLGTLLTGEEKQRVLLEARKAVRGDDGRPTQLPNEVDAAFPLERPDWDYTTQAGRNHLVHYRQLLLAGLQNAGRSPTNLAKVKGITQGPNESPSAFLERLKEAYRRYTPYDPEDPGQETNVSMSFIWQSAPDIGRKLERLEDLKNKTLGDLVREAEKIFNKRETPEEREERIRRETEEKEERRRTEDEQKEKERDRRRHREMSKLLATVVSGQKQDRQGGERRRSQLDRDQCAYCKEKGHWAKDCPKKPRGPRGPRPQTSLLTLDD
B3: Gag polyprotein (Moloney murine leukemia virus (isolate Shinnick) (MoMLV)), P03332 (parent)
chain: B2 chain
partner: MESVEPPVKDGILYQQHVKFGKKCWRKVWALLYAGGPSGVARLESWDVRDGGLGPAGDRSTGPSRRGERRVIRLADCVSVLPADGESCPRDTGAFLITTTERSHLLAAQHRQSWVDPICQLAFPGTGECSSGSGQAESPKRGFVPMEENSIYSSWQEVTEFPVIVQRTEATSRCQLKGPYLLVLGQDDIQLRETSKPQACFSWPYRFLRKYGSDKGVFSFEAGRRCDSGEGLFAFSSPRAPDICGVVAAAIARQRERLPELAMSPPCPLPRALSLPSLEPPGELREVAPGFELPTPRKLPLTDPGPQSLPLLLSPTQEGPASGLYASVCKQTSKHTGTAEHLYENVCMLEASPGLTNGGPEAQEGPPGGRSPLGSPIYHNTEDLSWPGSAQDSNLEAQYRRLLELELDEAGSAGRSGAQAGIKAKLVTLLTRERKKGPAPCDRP

Variants of: B1
Conditions: with gag_mlvms gag

Row | Variant | effect of a mutation on the interaction
1 | N1514A;S1515A;K1516A | disrupting interaction

Variants of: B2
Conditions: with iqga1_mouse Iqgap1, Q9JKF1

Row | Variant | effect of a mutation on the interaction
2 | Q63A;V64A;K65A | disrupting interaction

Variants of: B2
Conditions: with iqga1_mouse Iqgap1, Q9JKF1
Remark: another data set of the same source

Row | Variant | effect of a mutation on the interaction
3 | L60A;I61A;T62A | disrupting interaction

Variants of: B3
Conditions: with dok3_mouse Dok3, Q9QZK7

Row | Variant | effect of a mutation on the interaction
4 | L89A;F91A;D92A | disrupting interaction

Variants of: B3
Conditions: with dok3_mouse Dok3, Q9QZK7
Remark: another data set of the same source

Row | Variant | effect of a mutation on the interaction
5 | G72A;P73A;H74A | disrupting interaction

Variants of: B3
Conditions: with dok3_mouse Dok3, Q9QZK7
Remark: another data set of the same source

Row | Variant | effect of a mutation on the interaction
6 | F69A;S70A;P71A | disrupting interaction
